Data from patent US20140087995A1 (published 2014).
Numbering of substitutions follows the chain as printed. Numbered stars: 1 amine (or outer) side, 2 acyl side, 3 side chain; on linkers, the order of the positions; unused ones are H or OH. Bridge positions count the residues as written; N and C are the ends. * marks the point of attachment. C20 diacid = O=C(O)CCCCCCCCCCCCCCCCCCC(=O)*; γGlu = O=C(O)[C@H](CCC(=O)[*:2])N[*:1]; AEEA = NCCOCCOCC(=O)O

B1: N^α1-[2-[2-[2-[[2-[2-[2-[[(4S)-4-carboxy-4-(19-carboxynonadecanoylamino)butanoyl]amino]ethoxy]ethoxy]acetyl]amino]ethoxy]ethoxy]acetyl]-[Glu14,Arg17,Pro21,Pro27 … (peptide)
peptide: {C20 diacid-γGlu-AEEA-AEEA}-KCNTATCATQRLAEFLRHSSPNFGAIPSSTNVGSNTP-NH2
modifications: disulfide 2-7
SMILES: CC[C@H](C)[C@H](NC(=O)[C@H](C)NC(=O)CNC(=O)[C@H](Cc1ccccc1)NC(=O)[C@H](CC(N)=O)NC(=O)[C@@H]1CCCN1C(=O)[C@H](CO)NC(=O)[C@H](CO)NC(=O)[C@H](Cc1c[nH]cn1)NC(=O)[C@H](CCCNC(=N)N)NC(=O)[C@H](CC(C)C)NC(=O)[C@H](Cc1ccccc1)NC(=O)[C@H](CCC(=O)O)NC(=O)[C@H](C)NC(=O)[C@H](CC(C)C)NC(=O)[C@H](CCCNC(=N)N)NC(=O)[C@H](CCC(N)=O)NC(=O)[C@@H](NC(=O)[C@H](C)NC(=O)[C@@H]1CSSC[C@H](NC(=O)[C@H](CCCCN)NC(=O)COCCOCCNC(=O)COCCOCCNC(=O)CC[C@H](NC(=O)CCCCCCCCCCCCCCCCCCC(=O)O)C(=O)O)C(=O)N[C@@H](CC(N)=O)C(=O)N[C@@H]([C@@H](C)O)C(=O)N[C@@H](C)C(=O)N[C@@H]([C@@H](C)O)C(=O)N1)[C@@H](C)O)C(=O)N1CCC[C@H]1C(=O)N[C@@H](CO)C(=O)N[C@@H](CO)C(=O)N[C@H](C(=O)N[C@@H](CC(N)=O)C(=O)N[C@H](C(=O)NCC(=O)N[C@@H](CO)C(=O)N[C@@H](CC(N)=O)C(=O)N[C@H](C(=O)N1CCC[C@H]1C(N)=O)[C@@H](C)O)C(C)C)[C@@H](C)O
notes: also called 20; compound 20
B2: N^α1-[(4S)-4-carboxy-4-(19-carboxynonadecanoylamino)butanoyl]-[Arg17,Pro21,Pro27,Arg34]-h-amylin (peptide)
peptide: KCNTATCATQRLANFLRHSSPNFGAIPSSTNVGRNTY
modifications: C20 diacid-gGlu on alpha amino group of N-terminal Lys 1; Cys2-Cys7 disulfide; C-terminal amide
notes: also called 39; compound 39
B3: N^α1-[(4S)-4-carboxy-4-(19-carboxynonadecanoylamino)butanoyl]-[Arg17,Pro21,Pro27,Glu35]-h-amylin (peptide)
peptide: B2 peptide with R34S, N35E
modifications: C20 diacid-gGlu on alpha amino group of N-terminal Lys 1; Cys2-Cys7 disulfide; C-terminal amide
notes: also called 23; compound 23
B4: N^α1-[(4S)-4-carboxy-4-(19-carboxynonadecanoylamino)butanoyl]-[Arg17,Pro21,Pro27,His34]-h-amylin (peptide)
peptide: B2 peptide with R34H
modifications: C20 diacid-gGlu on alpha amino group of N-terminal Lys 1; Cys2-Cys7 disulfide; C-terminal amide
notes: also called 40; compound 40
B5: N^α1-[(4S)-4-carboxy-4-(19-carboxynonadecanoylamino)butanoyl]-[Arg17,Pro21,Pro27,Pro31,Glu35]-h-amylin (peptide)
peptide: {C20 diacid-γGlu}-KCNTATCATQRLANFLRHSSPNFGAIPSSTPVGSETY-NH2
modifications: disulfide 2-7
SMILES: CC[C@H](C)[C@H](NC(=O)[C@H](C)NC(=O)CNC(=O)[C@H](Cc1ccccc1)NC(=O)[C@H](CC(N)=O)NC(=O)[C@@H]1CCCN1C(=O)[C@H](CO)NC(=O)[C@H](CO)NC(=O)[C@H](Cc1c[nH]cn1)NC(=O)[C@H](CCCNC(=N)N)NC(=O)[C@H](CC(C)C)NC(=O)[C@H](Cc1ccccc1)NC(=O)[C@H](CC(N)=O)NC(=O)[C@H](C)NC(=O)[C@H](CC(C)C)NC(=O)[C@H](CCCNC(=N)N)NC(=O)[C@H](CCC(N)=O)NC(=O)[C@@H](NC(=O)[C@H](C)NC(=O)[C@@H]1CSSC[C@H](NC(=O)[C@H](CCCCN)NC(=O)CC[C@H](NC(=O)CCCCCCCCCCCCCCCCCCC(=O)O)C(=O)O)C(=O)N[C@@H](CC(N)=O)C(=O)N[C@@H]([C@@H](C)O)C(=O)N[C@@H](C)C(=O)N[C@@H]([C@@H](C)O)C(=O)N1)[C@@H](C)O)C(=O)N1CCC[C@H]1C(=O)N[C@@H](CO)C(=O)N[C@@H](CO)C(=O)N[C@H](C(=O)N1CCC[C@H]1C(=O)N[C@H](C(=O)NCC(=O)N[C@@H](CO)C(=O)N[C@@H](CCC(=O)O)C(=O)N[C@H](C(=O)N[C@@H](Cc1ccc(O)cc1)C(N)=O)[C@@H](C)O)C(C)C)[C@@H](C)O
notes: also called 28; compound 28
B6: N^α1-[(4S)-4-carboxy-4-(19-carboxynonadecanoylamino)butanoyl]-[Asp14,Arg17,Pro21,Pro27,Pro37]-h-amylin (peptide)
peptide: {C20 diacid-γGlu}-KCNTATCATQRLADFLRHSSPNFGAIPSSTNVGSNTP-NH2
modifications: disulfide 2-7
SMILES: CC[C@H](C)[C@H](NC(=O)[C@H](C)NC(=O)CNC(=O)[C@H](Cc1ccccc1)NC(=O)[C@H](CC(N)=O)NC(=O)[C@@H]1CCCN1C(=O)[C@H](CO)NC(=O)[C@H](CO)NC(=O)[C@H](Cc1c[nH]cn1)NC(=O)[C@H](CCCNC(=N)N)NC(=O)[C@H](CC(C)C)NC(=O)[C@H](Cc1ccccc1)NC(=O)[C@H](CC(=O)O)NC(=O)[C@H](C)NC(=O)[C@H](CC(C)C)NC(=O)[C@H](CCCNC(=N)N)NC(=O)[C@H](CCC(N)=O)NC(=O)[C@@H](NC(=O)[C@H](C)NC(=O)[C@@H]1CSSC[C@H](NC(=O)[C@H](CCCCN)NC(=O)CC[C@H](NC(=O)CCCCCCCCCCCCCCCCCCC(=O)O)C(=O)O)C(=O)N[C@@H](CC(N)=O)C(=O)N[C@@H]([C@@H](C)O)C(=O)N[C@@H](C)C(=O)N[C@@H]([C@@H](C)O)C(=O)N1)[C@@H](C)O)C(=O)N1CCC[C@H]1C(=O)N[C@@H](CO)C(=O)N[C@@H](CO)C(=O)N[C@H](C(=O)N[C@@H](CC(N)=O)C(=O)N[C@H](C(=O)NCC(=O)N[C@@H](CO)C(=O)N[C@@H](CC(N)=O)C(=O)N[C@H](C(=O)N1CCC[C@H]1C(N)=O)[C@@H](C)O)C(C)C)[C@@H](C)O
notes: also called 10; compound 10
B7: N^α1-[(4S)-4-carboxy-4-(19-carboxynonadecanoylamino)butanoyl]-[Glu14,Arg17,Pro21,Pro25,Pro28,Pro29,Pro37]-h-amylin (peptide)
peptide: {C20 diacid-γGlu}-KCNTATCATQRLAEFLRHSSPNFGPILPPTNVGSNTP-NH2
modifications: disulfide 2-7
SMILES: CC[C@H](C)[C@H](NC(=O)[C@@H]1CCCN1C(=O)CNC(=O)[C@H](Cc1ccccc1)NC(=O)[C@H](CC(N)=O)NC(=O)[C@@H]1CCCN1C(=O)[C@H](CO)NC(=O)[C@H](CO)NC(=O)[C@H](Cc1c[nH]cn1)NC(=O)[C@H](CCCNC(=N)N)NC(=O)[C@H](CC(C)C)NC(=O)[C@H](Cc1ccccc1)NC(=O)[C@H](CCC(=O)O)NC(=O)[C@H](C)NC(=O)[C@H](CC(C)C)NC(=O)[C@H](CCCNC(=N)N)NC(=O)[C@H](CCC(N)=O)NC(=O)[C@@H](NC(=O)[C@H](C)NC(=O)[C@@H]1CSSC[C@H](NC(=O)[C@H](CCCCN)NC(=O)CC[C@H](NC(=O)CCCCCCCCCCCCCCCCCCC(=O)O)C(=O)O)C(=O)N[C@@H](CC(N)=O)C(=O)N[C@@H]([C@@H](C)O)C(=O)N[C@@H](C)C(=O)N[C@@H]([C@@H](C)O)C(=O)N1)[C@@H](C)O)C(=O)N[C@@H](CC(C)C)C(=O)N1CCC[C@H]1C(=O)N1CCC[C@H]1C(=O)N[C@H](C(=O)N[C@@H](CC(N)=O)C(=O)N[C@H](C(=O)NCC(=O)N[C@@H](CO)C(=O)N[C@@H](CC(N)=O)C(=O)N[C@H](C(=O)N1CCC[C@H]1C(N)=O)[C@@H](C)O)C(C)C)[C@@H](C)O
notes: also called compound 4
B8: N^α1-[(4S)-4-carboxy-4-(19-carboxynonadecanoylamino)butanoyl]-[Glu14,Arg17,Pro21,Pro25,Pro28,Pro29]-h-amylin (peptide)
peptide: {C20 diacid-γGlu}-KCNTATCATQRLAEFLRHSSPNFGPILPPTNVGSNTY-NH2
modifications: disulfide 2-7
SMILES: CC[C@H](C)[C@H](NC(=O)[C@@H]1CCCN1C(=O)CNC(=O)[C@H](Cc1ccccc1)NC(=O)[C@H](CC(N)=O)NC(=O)[C@@H]1CCCN1C(=O)[C@H](CO)NC(=O)[C@H](CO)NC(=O)[C@H](Cc1c[nH]cn1)NC(=O)[C@H](CCCNC(=N)N)NC(=O)[C@H](CC(C)C)NC(=O)[C@H](Cc1ccccc1)NC(=O)[C@H](CCC(=O)O)NC(=O)[C@H](C)NC(=O)[C@H](CC(C)C)NC(=O)[C@H](CCCNC(=N)N)NC(=O)[C@H](CCC(N)=O)NC(=O)[C@@H](NC(=O)[C@H](C)NC(=O)[C@@H]1CSSC[C@H](NC(=O)[C@H](CCCCN)NC(=O)CC[C@H](NC(=O)CCCCCCCCCCCCCCCCCCC(=O)O)C(=O)O)C(=O)N[C@@H](CC(N)=O)C(=O)N[C@@H]([C@@H](C)O)C(=O)N[C@@H](C)C(=O)N[C@@H]([C@@H](C)O)C(=O)N1)[C@@H](C)O)C(=O)N[C@@H](CC(C)C)C(=O)N1CCC[C@H]1C(=O)N1CCC[C@H]1C(=O)N[C@H](C(=O)N[C@@H](CC(N)=O)C(=O)N[C@H](C(=O)NCC(=O)N[C@@H](CO)C(=O)N[C@@H](CC(N)=O)C(=O)N[C@H](C(=O)N[C@@H](Cc1ccc(O)cc1)C(N)=O)[C@@H](C)O)C(C)C)[C@@H](C)O
notes: also called compound 6

target: T1, human amylin receptor (amylin 3(a) receptor: human calcitonin receptor with RAMP-3) (human, UniProt P30988 25-474; O60896 24-148); assay: SPA displacement of 125I-rat amylin, hAmylin 3(a) receptor membranes
T1 construct: whole, on cells; also called hAmylin-R; hAmylinR
T1 sequence (looked up) 1: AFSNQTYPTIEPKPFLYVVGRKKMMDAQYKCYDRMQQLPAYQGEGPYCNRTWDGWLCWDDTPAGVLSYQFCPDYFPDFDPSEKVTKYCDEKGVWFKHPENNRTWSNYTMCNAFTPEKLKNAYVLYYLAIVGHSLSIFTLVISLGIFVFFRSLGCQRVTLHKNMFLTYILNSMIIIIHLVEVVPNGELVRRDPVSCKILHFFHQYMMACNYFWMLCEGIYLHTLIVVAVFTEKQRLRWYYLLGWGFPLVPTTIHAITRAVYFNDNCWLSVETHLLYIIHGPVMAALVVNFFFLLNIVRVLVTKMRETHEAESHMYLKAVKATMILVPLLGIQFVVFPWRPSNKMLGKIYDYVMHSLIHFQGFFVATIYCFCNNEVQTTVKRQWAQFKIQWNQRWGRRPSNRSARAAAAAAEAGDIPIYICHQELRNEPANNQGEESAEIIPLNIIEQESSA
T1 sequence (looked up) 2: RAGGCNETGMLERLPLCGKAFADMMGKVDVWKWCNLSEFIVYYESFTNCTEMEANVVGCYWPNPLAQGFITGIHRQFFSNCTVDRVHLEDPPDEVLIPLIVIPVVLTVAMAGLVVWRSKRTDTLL
Description: The binding assay was performed using scintillation proximity assay (SPA) beads (RPNQ0001) from PerkinElmer and cell membranes from the Amylin 3(a)/CRE-luc cells (as described in Assay (II)) were used. Membranes were prepared in the following way; the cells were rinsed with PBS and incubated with Versene for approximately 5 min before harvesting. The cells were flushed with PBS and the cell-suspension was centrifuged for 5 min at 1000 rpm. Cells were homogenized (ultrathurrax) in a buffer containing 20 mM Na-HEPES and 10 mM EDTA (pH 7.4) and centrifuged at 20.000 rpm for 15 min. The resulting pellet was resuspended, homogenized and centrifuged (20.000 rpm, 15 min) in a buffer containing 20 mM Na-HEPES and 0.1 mM EDTA (pH 7.4, buffer 2). The resulting pellet was resuspended in buffer 2 and protein concentration was measured (BCA protein Assay, Pierce). The homogenate was kept cold during the whole procedure. The membranes were kept at −80° C. until use. The assay was performed in a 384 well Optiplate (PerkinElmer) in a total volume of 40 ul. Membranes were mixed with SPA beads. Final concentration of membranes 35 ng/μL final and SPA beads was 0.05 mg/well. Test-compounds were dissolved in DMSO and further diluted in assay buffer (50 mM Hepes, pH 7.4, 1 mM CaCl2, 5 mM MgCl₂, 0.1% OA and 0.02% Tween20). […] The final mixture was incubated with shaking at 400 rpm for 120 min at 25° C. prior to centrifugation (1500 rpm, 10 min). Samples were analyzed on TopCounter™ (Packard). The IC₅₀ was calculated using (one site binding competition analysis) GraphPad Prism5 as a measure of receptor affinity.

| Binder | IC50 [nM] |
| --- | --- |
| B1 | 0.217 |
| B2 | 0.665 |
| B3 | 0.871 |
| B4 | 0.549 |
| B5 | 0.61 |
| B6 | 0.082 |
| B7 | 0.321 |
| B8 | 0.996 |
